No end group written: not given here. *: point of attachment. Acm = CC(=O)NC*
Tested on: focal inflammation in the leg (zymosan-injected left hindleg)
Type: in vivo, male Wistar rats
Conditions: rat; for Fluid:Blood (inflammatory exudate:blood) / Inflam:Uninfl (inflamed:uninflamed muscle, target to background ratio): i.v. via tail vein, 30 minutes, average of two rats; for Inflam:Uninfl (inflamed:uninflamed muscle, target to background ratio): corrected for residual dose in the tail; for GI Tract (% dose) / Liver (% dose) / Urine (% dose): in vivo, iv
Protocol: Rat inflammation studies were performed as follows.
Serial whole-body scintigrams were acquired at 30 minutes.

Substance	Fluid:Blood (inflammatory exudate:blood)	Inflam:Uninfl (inflamed:uninflamed muscle, target to background ratio)	GI Tract (% dose)	Liver (% dose)	Urine (% dose)
N,N-dimethylGly-Ser-Cys(Acm)-Gly-Thr-Lys-Pro-Pro-Arg ({N,N‑dimethyl}-GSC(Acm)GTKPPR)	1.9	5.3	2.8 % dose	2.4 % dose	63.5 % dose
N,N-dimethylGly-Thr-Cys(Acm)-Gly-Thr-Lys-Pro-Pro-Arg ({N,N‑dimethyl}-GTC(Acm)GTKPPR)	1.6	4.6	2.5 % dose	2.4 % dose	
N,N-dibenzylGly-Ser-Cys(Acm)-Gly-Thr-Lys-Pro-Pro-Arg ({N,N‑dibenzyl}-GSC(Acm)GTKPPR)	0.4	3.7	7.5 % dose	2.3 % dose	55.1 % dose

From patent publication US5976495A, “Peptide derived radionuclide chelators” (Resolution Pharmaceuticals, Inc., priority 1996, dated 1999)
